# Test results reported in a protein production outcome set (Wang et al. 2014).
# Assay: label from the status in PepcDB records
# 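Also: failed if final PepcDB status was selected cloned or expressed and not failed if soluble or beyond.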
row,Sequence,protein production
1,DIGGITGSFYLNTNALPTNADKIKSLILEVIEQCQIKSDDVVLYGCSKGGTAAVYHGLTNNYKIVAV,failed
2,DILVFTPRKSDAGISVILYPGAFVDALSYAPLANKLASSGYKTYIAEMPLNLAVFGKNRAADIIDEAPDEKFVIGGHSLGGVMSSRFAHENESEIEGVFFLASYPDKKGSLKNASFPALSITGTKDDVLNKDAYDKNKKYLPKDTTFVSIEGGNHAQFGSYGAQHGDGKATISEAEQTDQVSNALIAWLNTSVKNQE,not failed
3,DIVARLQTQASATVAIPKEHHRFVIGKNGEKLQDLELKTATKIQIPRPDDPSNQIKITGTKEGIEKARHEVLLISAEQDKR,not failed
4,DKEWNEKELQKLHCAFASLPKHKPGFWSEVAAAVGSRSPEECQRKYMENPRGKGSQKHVT,not failed
5,DKIAIIGSRRMSVYTKNCVFSLASMLKNAHLCVVSGGALGVDITASMAAMPNTIGIFANGLDQIYPRTNEKIIKQIYENALALSEYEDDYLPKNYDFLLRNRLVIALSKAVVVAQADIKSGSMQSAKLALELNKPLYVLPQRLGESTATNLLLKENKAKLICDFKEFVSEFASID,failed
6,DKIGIERFLFPLGLYSYFRWMKQYERDRGLFLSLLLSLLYESTHNFLSVIFSSITGDNFVLQY,failed
7,DKIHMLKQQNIIGIGTHNGITTIHTTNHKYETTEPLNRYEKRLNPTYFIRIHRSYIINTKHIKEVQQWFNYTYMVILTNGVKMQVGRSFMKDFKASIGLL,failed
8,DKSNKLQNLVAEQLVGCGFNEILNNSLTRAAYYDGLESYPSKNLVMLLNPLSADLNCMRQTLLFGGLESIAHNANRKNADLKFFEFGNCYHFDAEKKNPEKVLAPYSEDYHLGLWVTGKMVSNSWAHADENTSVYELKAYVENIFKRLGLDLHSLVVGNLSDDIYSTALTVNTKGGKRLATFGVVTKKMLKAFDVDNEVYYADLNWKELM,not failed
9,DLSSVIKASQTLASEIKLEKLLSTLMELVIENAGAKKCVLVLLKNERLLIEAIAKINQVPISTILVSIPIAESDEIPISLINYVSHTSQTLVIDDATTEDLFISDPYIQQKEPKSLLCTPIIKQGKLMGILYLENHLTTGAFTSDRLQVINLLMAQAAISLENAQLYGQLAEYSQNLELKVEQRT,failed
10,DPQILTTPGRDIAELRRIAGRPLSVAIDFEGGRVLRHRGILGDFPSPQVMAQTMTPEQVRGMAYDMGRSLFAHGINVNFAPVVDIEAGLEVVGDRAFSPDPLIDATYATAFAQGMADAGVRPVLKHFPGHGRASGDSHTAQVHTPPLAELEKLDLIPYGRVP,failed
11,DQPVINFGIISTESSQNLKSIWEPFLKDMSQQTGYQVKAFFAPDYAGIIQGMRFDKVDIAWYGNKAAMEAVDRAHGEIFAQTVAASGAPGYWSLLIANKDSKIDSLEDMLANAKSLTFGNGDPNSTSGYLVPGYYVFAKNNVDPVKAFKRTLNSSHEVNALAVANKQVDVATFNTEGMERLELTQPEKARQLKVIWKSPLIPGDPLVWRNNLSDEQKNKLRDFFFKYGANAEQKKVLADLQWSKFQPSDDDQLLPIRQLELFKQRTDVANNANLGAEEKAAKLKALDEELAKLEKRMAEREQKTAANAG,not failed
12,DRAVKEFEANGGSSAANGGGAKKRAKPAKKVAKKSKKEESDEDDDDESE,failed
13,DRRVRRNMEIAEIVGLDAHTKMLRTSTVFQWDSVKDEHAMVGTSKALEEIRRQRGWSVRELNEELERRRRVLEFMLSNGIRMFKDVSAVIHTYQVNPERAMKRLGVEEL,failed
14,DRTEERHAKGLRRQVDHRFDKLVGTISEGVLLMDDTGVFRDGNEAAQNILGRSLDEIIGSRFDDDIWNGLREDGSPLPNVEFPFWRAYVEREPVQEEVMGVYPPDAPPRWIRVNAQPLFRSGQEAPYAVLV,not failed
15,DSALENPAQVRNYLKAQLRHEPHEVFACLFLDNKHRVMTFEILFRGTINASYVHPRQVVKRALAHNAASLILCHNHPSGITTPSRSDIDLTKRLKEALKLVDVHVLDHVIVGDGEPLSMVEKGLM,not failed
16,DSLGREAKCYNELNGCTKIYDPVCGTDGNTYPNECVLCFENRKRQTSILIQKSGPC,failed
17,DSVDKTMHIGRQLGSLVNKGDILCLTGDLGTGKTHISKGIAEGLGIDEHITSPTFNIVNEYHSGRLTLYHFDVYRVNDPDEIEAIGFDEYIFGDGVSLIEWANYIEELIPEEYIHIKIEKLPDMGENFRKITINGYGDRYNYIKEIKE,failed
18,DTVLIVNKKAEIIWINNNITNLLGYLPDELLGKSIECLVPSRTREKHVNLRNSFINKPNKRSMNQGSGLWAVHKKNHEIPVCIDLNHYEESGEKFTVCSIRL,failed
19,DVARVQRLAAALATAGTVRDVSQAVVAALRRPLRADRIALAELENDRLVVTVLDPPDPESWPELWRLEWRTEWPDAPVRAMPTLAAALREGRARIWPAGTGDLEPALADVGPGGLAVLPLPAGGRMAGACLIGWDTPHDFGPDERALLTASAGLAGQALMRAHAFDAEHELVGMLQRQL,failed

row,Sequence,protein production
1,DVTEQKQAEAELHQRDRLLQAVAEAANWLVVEMNYDTAIEKALAVVGEAAQADRAYLFKNHPHPITGKRAVSLQFEWYGSDLQPSIQDWQNQLYQSTELSRWYSVLSSGKSINELRRKLPVAERELLERQGIQSLLLVPLGLEDQFWGYLGLADCTQERYWSRHEESTLLTMAASISGAWQRQQVEEKIRYQALHDL,not failed
2,DYFTTTNSIPPVITTNHRRKHSIEKFYRDQLGSIIWNEEDVGHQQVPEINKHGYRAAVKIIVIIDNMERKAAIQSRQSYDEALRYGAVLIFLPGIYEIDT,failed
3,EAPVRVIVVHGLGTHSGALWPLVAAIEGADLAAIDLPKTPLYDDWLRLLESFISSEDDGRPLILIGAGTGGLLCAEAAHRTGLVAHVIATCLLNPSDQPTRRALFRFSPLTRLIQGRLRNREIPVTRVLNFSKISRSPALSKLCAADEFSGASKITWGFLASYVQHKAKLGAVPVTLMHPDHDLLTPVELSLRTLSRLKAPTDVVMLKDCGHFPIEEPGFTTMLETVTSVIARNS,failed
4,EDGLFSVVLPFMSSFLLDPNAADPGYLKTRDYLTYNGVTTVADMNTGGTNWELEISALKRNLDTPESPIRVRLTPDVMKLAAALKSPEAAMTLVNQMKQHNTDNLVFNGGIKLFADGAMFSQAMQINAPGYIDGHKGEWITQPSSFVEFARSYWNAGYQIHVHTNGDGGAKMVLDTLQELENDKPRADHRFTVEHYGYADDGTSRRIAKLDAQVSANPFYLFDLGDRYAENGLGFDRAARIAPLGGLASRNVPVALHSDFPMAPAEPLFLAWTAMSRETLSGKVFSPSERLTLDQAIRAITIDAAYMIGMENE,failed
5,EDKKGGTKPSNEAALTKTENLDFRLSFNKIKVTTDQNHFSGGTSIEQLKQWFGDPNKSEQRNAGNITLDSYTWVKDGAVINAQLYKNSTVARSISNFSFSREAKIGKEDYDELKIGESYKKVVEKLGEPDVLSQSMSSDKEEMQTVWSSGIKTKSSSATIELYFENGLLKNKTQKDLE,not failed
6,EDYEKVPLPNSVFVNTTESCEVERLFKATSPRGEPQDGLYCIRNSSTKSGKVLVVWDETSNKVRNYRIFEKDSKFYLEGEVLFVSVGSMVEHYHTHVLPSHQSLLLRHPYGYT,not failed
7,EEDWVLPSEVEVLESIYLDELQVIKGNGRTSPWEIYITLHPATAEDQDSQYVCFTLVLQVPAEYPHEVPQISIRNPRGLSDEQIHTILQVLGHVAKAGLGTAMLYELIEKGKEILTDNNIPHGQ,not failed
8,EEELPFKVLGDGSYLFEGKTSLSDVRHYLDLPENAFGELGDEVDTLSGLFLEIKQELPHVGDTAVYEPFRFQVTQMDKRRIIEIKIFPFE,not failed
9,EEGNSSELPLSAEDAKKLTELAENVLQGWDVQAEKIDVIQGNQMALVWKVHTDSGAVCLKRIHRPEKKALFSIFAQDYLAKKGMNVPGILPNKKGSLYSKHGSFLFVVYDWIEGRPFELTVKQDLEFIMKGLADFHTASVGYQPPNGVPIFTKLGRWPNHYTKRCKQMETWKLMAEAEKEDPFSQLYLQEIDGFIEDGLRIKDRLLQSTYVPWTEQLKKSPNLCHQDYGTGNTLLGENEQIWVIDLDTVSFDLPIRDLRKMIIPLLDTTGVWDDETFNVMLNAYESRAPLTEEQKQVMFIDMLFPYELYDVIREKYVRKSALPKEELESAFEYERIKANALRQLI,not failed
10,EEHPRAWIISVGNELLIGRTINTNAAWLGSRLTLLGFEVERVVTVPDRVEDIAEEVGRALGRARVVITTGGLGPTYDDVTLQGVAMALGRGLKLHPGALEMVRRFYSKRGLGLTEDRVKMAMLPDGAEPLENPVGAAPGAVVEARGSLVASLPGVPSEMEAMFEKALRPLLEEIAPPGAVVECGIAVVGVPESSLAPYIKEASRVSPRVYVKSHPQGSEIGKPLVR,failed
11,EEPTIGDIYNGKVTSIMQFGCFVQLEGLRKRWEGLVHISELRREGRVANVADVVSKGQRVKVKVLSFTGTKTSLSMKDVDQETGEDLNPNRRRNLV,not failed
12,EERRVAYPVLRELTERTGETSALMVWNGNESMCVEQIPSRHQVKHLAPLGARYNEALSSSVQVFLASENEDRVRQLLRSGSITLTGVDEDAVEAYLLRLKESMERGWAVNFGETSIEEVGVASPVYDHRGNMVASVLIPAPKFRVSQDTLNSLGEACAAAAAKVTTRLGGRAPH,not failed
13,EETRTEVEKKNYMNNAEEAKDVLLGVYRTNTLDAMYGYYLSILFNLGTDISQVEGSGNENFRIIPTNSFPTTQSEVQQTWAALYTGIYRANDFLERISNKIGSYTTTDKKLATLYIAEARALRGMFYFELVRRFGNVVLMTSTQMSNQNPATYVQSAPEKVYEYIEDDLLYACDILPYATDDQYRESNDYRFSKGAALGLLTKVYATWAGYPVKDESKWEAAAKTARILVESGKHGLLKDYEQLWKNTCNGTWDPTESLIEISFYSPTVSGNSDPVGRIGKWNGVKTTAIAGVRGSCAANVKVVHTFVLDWREDVSDIRRDLSIANYQYTDTKKSLWVAGASDTDESAAEKDADPTKAQKNKQNYTPAKWDIQKYVTTNSFINNDKSNVNWYFLRYADVLLLYAEALNEWKHGPDAEAYNAINAVRRRGYGNPSNTSACDLPQGLDETSFREAVRKERSYELSFEGHRRQDLIRWGIYYKTVQATAKELGYWWEGTGSPNYSVATYTEEGKHELFPIPQRDMDLCIQFNQNPKW,not failed
14,EGDPENGEKLQITIRRGKDGFGFTICCDSPVRVQAVDSGGPAERAGLQQLDTVLQLNERPVEHWKCVELAHEIRSCPSEIILLVWRV,not failed
15,EGRLVCTVRDMTDRRQKERALRHRSSAMEVASDGIAILDEAGTYQYVNQAHASIYGYDTPGALVGRSWTACYEEAEQQRLEAEAMAALEETGDWRGEARGVREDGSSFPQELTLTVLEDGSIVCVVRDITARKEDERELRSTKQYYEQILEKAVK,failed
16,EIKLEDVLIKRRSVREYCSSPLTLRELSHILFAAYGVTDERGFKTVPSAGATYPLEIYVNVRDVVGVEEGVYKYIPERHSIVRILDEEVGHELALAALKQMFIAIAPIVLIIAANYERTTRVYGDRGFRYVHMEVGHVAQNVYLMATSLGLGTVSVGAFYDNEIREILKIKEYPLLLMPVG,failed
17,EKGTTGTGNAALDNIFERKSVRTYLNKGVEKEKIDLMLRAGMSAPSGKDVRPWEFVVVSDRAKLDSMAAALPYAKMLTQARNAIIVCGDSARSFYWYLDCSAAAQNILLAAESMGLGAVWTAAYPYEDRMEVVRKYTHLPENILPLCVIPFGYPATKEQPKQKYDEKKIHYNQY,not failed
18,EKIWPRDRSASRERSLSPRSDRRSVASSQPAKPTKVTLVKSRKNEEYGLRLASHIFVKEISQDSLAARDGNIQEGDVVLKINGTVTENMSLTDAKTLIERSKGKLKMVVQRDERATLLNVPDLSDSIHSANASERDDISEIQSLASDH,failed
